In publication PMC7337405, “A secreted LysM effector protects fungal hyphae through chitin-dependent homodimer polymerization” (PLoS Pathogens, 2020):

Assays:
(GlcNAc)6 = assay: ITC
Mg1LysM = target: T1, Mg1LysM (Zymoseptoria tritici, UniProt F9XHX3); assay: X-ray crystal structure of the complex ([…] Å); type: binding; conditions: P. pastoris-produced protein; ligand co-purified from host cell wall; site between two protomers of neighbouring homodimers
T1 construct: mature single-LysM effector, signal peptide absent; ITC: E. coli Origami pET-SUMO, His-SUMO cut off by ULP1; crystal: P. pastoris GS115, His-FLAG tag; ligand-independent homodimer; chitin site formed by two protomers of neighbouring homodimers

| Compound | other: stoichiometry N ((GlcNAc)6) | X-ray crystal structure of the complex (2.41 Å) (Mg1LysM) |
| --- | --- | --- |
| Mg1LysM (Zymoseptoria tritici LysM effector), wild type, produced in E. coli (from UniProt A0A1X7S147) D54A | 0.902 | – |
| Mg1LysM (Zymoseptoria tritici LysM effector), wild type, produced in E. coli (from UniProt A0A1X7S147) K31A | 0.97 | – |
| Mg1LysM (Zymoseptoria tritici LysM effector), wild type, produced in E. coli (from UniProt A0A1X7S147) T28R | 0.956 | – |
| CC(=O)N[C@H]1[C@H](O[C@H]2[C@H](O)[C@@H](NC(C)=O)C(O)O[C@@H]2CO)O[C@H](CO)[C@@H](O[C@@H]2O[C@H](CO)[C@@H](O)[C@H](O)[C@H]2NC(C)=O)[C@@H]1O (stereo partly shown) [chitin trimer] | – | well-defined electron density for a single chitin trimer bound to one monomer of the a.u. |
